The nanobody polyreactivity screen of Harvey et al. (2022)

Assay: yeast display, Sf9 membrane polyspecificity reagent, FACS + sequencing; frameworks hold sequencing errors
Procedure, shortened: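 A nanobody's polyreactivity label depends on the gate it was sorted from. Yeast display cells were stained with 10% biotinylated, detergent-solubilized Sf9 membrane reagent for 1 hour at 4 °C, enriched on streptavidin microbeads and sorted by FACS. The low and high (top ~1%) gates were set on anti-HA fluorescence for expression and streptavidin fluorescence for reagent binding.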

Question: With “QVQLVESGGGLVQAGGSLRLSCAASGFTFLNYAMGWYRQAPGKERELVAAITRSGGSTYYADSVKGRFTISRDTAKNTVYLQMNSLKPEDTAVYYCAIGYYSPNYYYWGQGTQVTVSS” as the sequence, how does the “polyreactivity (PSR sort gate)” value read?
Answer: high polyreactivity

Question: For “QVQLVESGGGLVQAGGSLRLSCAASGRTFATNARGWYRQAPGKERELVAGINGSGSTNYADSVKGRFTISRDNAKNTVYLQMNSLKPEDTAVYYCAAYVGLYYRLHYYYWGQGTQVTVSS”, which “polyreactivity (PSR sort gate)” value is on record?
Answer: low polyreactivity

Question: For “QVQLVESGGGLVQAGGSLRLSCAASGFIFAHNAMGWYRQAPGKVRELVAAISWGSGSTYYADSVKGRFTISRDNAKITVYLQMNSLKPEDTAVSYCAARAVRYYAWVRGGWTSFDYWGQGTQVTVSS”, which “polyreactivity (PSR sort gate)” value is on record?
Answer: high polyreactivity

Question: Which “polyreactivity (PSR sort gate)” value does the source give for “QVQLVESGGCLVQAGGSLRLSCASSGFTIWQNAMGWYRQAPGKERELVAGIRLSGGSTYADSEKGRFTISRDNAKNTVYLQMNSLKPEDTAVYYCAARIAGYYRYRSLRYDYWGQGTQGTVSS” here?
Answer: high polyreactivity

Question: For “QVQLVESGGGLVQAGGSLRLSCAASGRNFPDNTMGWYRHAPGKERELVATIAWIGASTYYADSEKGRFTISRDNAKNTVYLQMNSLKPEDTAVDYCAGTTSHRWYGFNSKYDFDYWGQGTQVTVSS”, which “polyreactivity (PSR sort gate)” value is on record?
Answer: low polyreactivity

Question: With “QVQLVESGGGLVQAGGSLRLSCAASGSTFRYNAMGWYRQAPGKERELVATITGSGGSTYYADSVKGRFTISRDNAKNTVYLQMNSLKPEDTAVYYCTARYVYGAYSSLSAHYYWGQGTQVTVSS” as the sequence, how does the “polyreactivity (PSR sort gate)” value read?
Answer: high polyreactivity

Question: For “QFQLVESGGGLVQAGGSLRLSCAASGSIFYGYAMGWYRQAPGKERELVARITGSGGDTSYADSVKGRFTISRDNAKNTVYLQMNSLKPEDTAVYYCNTDLYITYTLYTGSEYDYWGQGTQVTVSS”, which “polyreactivity (PSR sort gate)” value is on record?
Answer: low polyreactivity

Question: Which “polyreactivity (PSR sort gate)” value does the source give for “QDQHVESVGGLVQAGGRLRLSSAASGLIFFDSPMVSDRQAPGKERELVAAISTTGGSTYYADSVKGRCTISRDNAKNSVYLEMNSLKPEDTAVYYCNARFVHHSWGTNYYWGQGTQVTVSS” here?
Answer: high polyreactivity

Question: Which “polyreactivity (PSR sort gate)” value does the source give for “QVQLVESGGGLVQAGGSHRLSCAASGSTFAGNAMGWYRQAPGKERELVAAISGSGGITYYADSVKGRFTISRDNAKNTVYLQMNSLKPEDTAVYYCNAYYWFSRYGYWGQGTQVTVSS” here?
Answer: high polyreactivity

Question: With “QVQLVESGGGLVQAGGSLRLSCAASGITIQGYAMGWYRQAPGKERELVAAINDSGSSTYYADSVKGRFTISRDNAKNTFYLQMNSLKPEYTAVYYCAAYLWLWGQGTQVTVSS” as the sequence, how does the “polyreactivity (PSR sort gate)” value read?
Answer: low polyreactivity

Question: For “QVQLVESGGGLVQAGGSLRLSCAASGRTFGTNAMGWYRQAPGKERELVASIDLSADSTYYADSVKGRFTISRDNAKNTVYLQMNSLKPEDTAVYYCNKDGYPWPPNLDYWGQGTQVTVSS”, which “polyreactivity (PSR sort gate)” value is on record?
Answer: low polyreactivity

Question: For “QVQLVESGGGLVQAGGSLRLSCAASGSIFGTYAMGWYRQAPGKERELVAAISRGGRTYYADSVKGRFTISRDNAKNTVYLQMNSLKPEDTAVYYCAARTVGLRGYYYWGQGTQVTVSS”, which “polyreactivity (PSR sort gate)” value is on record?
Answer: high polyreactivity

Question: For “QVQLVESGGGLVQAGGSLRLSCAASGITFGYNTMGWYRQAPGKERELVAAISGSGGRTYYADSLKGRFTISRDNSKNTVYLQMNSLKPEDTAVYYCAARWPIWSSLYDYWGQGTQVTVSS”, which “polyreactivity (PSR sort gate)” value is on record?
Answer: high polyreactivity

Question: With “QVQLVESGVGLVQAGGSLRLSCAASGFIFGVTTMGWYRLAPGKERELVAAISTLASSTFDADSVKGRFTISRDNAKNTVYLQMNSLKPEDTAVYYCAVDLNWFFSFGLDYWGQGTQLTVSS” as the sequence, how does the “polyreactivity (PSR sort gate)” value read?
Answer: low polyreactivity

Question: With “QVQLVESGGGLVQAGGSLRLSCAASGLTFVKNAMGLYRQAPRKERELVATISSGGSTNYADSVKGRFTISRDNAKNTVYLQMNSLKPEETAVYYCNKDYTGVLLWIWWDRYDYWGQGTQVTVSS” as the sequence, how does the “polyreactivity (PSR sort gate)” value read?
Answer: high polyreactivity

Question: For “QVQLVESGGGLVQAGGSLRLSCAASGRIFSSNAMGWYRQAPGKERELVAAITKSGGGTYYADSVKGRFTISRDNAKNTVYLQMNSLKPEDSAVYYCAADHGRPYFSYDYWGQGTQVTVSS”, which “polyreactivity (PSR sort gate)” value is on record?
Answer: low polyreactivity

Question: For “QVQLVESGGGLVQAGGSLRLSCAASGSTFSGYVMGWYRQAPGKERELVAAISSSGGGSTYYADSVKGRFTISRDNAKNTVYLQMNSLKPEDTAVYYCAARNYRKYDYWGQGTQVTVSS”, which “polyreactivity (PSR sort gate)” value is on record?
Answer: high polyreactivity

Question: For “QVQLVESGGGLVQAGGSLRLSCAASGSTFGANAMGWYRQAPGKEREFVAAISRSGVRTYYADSVKGRFTISRDNAKNTVYLQMNSLKPEDTAVYYCAARFWYDYRHYDYWGQGTQVTVSS”, which “polyreactivity (PSR sort gate)” value is on record?
Answer: low polyreactivity

Question: Which “polyreactivity (PSR sort gate)” value does the source give for “QVQLVESGGGSLRLSCAASGLTFGGYTMGWSRQAPGKERELFAAISSSDSTNYADSVKGRFTISRDNAKNTVYLQMNSLKPEDTAVYYCAADSGQWCRFSSFGDEGDSWGQGTQVTVSS” here?
Answer: low polyreactivity

Question: Which “polyreactivity (PSR sort gate)” value does the source give for “QVQLVESGGGLVQAGGSLRLSCAASGRTLDKYTMGGYRQAPGKERELVASITSGGSTNYADSVKGRFTISRDNAKNTVYLQMNSLKPEDTAVYYCASGNWVLWNPGYDYWGQGTQVTVSS” here?
Answer: low polyreactivity

Question: With “QVQLGESRGGLVQAVGSLSLSCAAYGFTYDKNAMGWYIQAPGNESALDAAINIRSTYYAESVKGRFTISRDNAKNTVYLQMNSMKPEDTAVYYCANEVPSGYWFNYYYWGQGTQVTVSS” as the sequence, how does the “polyreactivity (PSR sort gate)” value read?
Answer: low polyreactivity

Question: For “QVQLVESGGGLVQAGGSLRLSCAASGSTFRYYAMGWYRQAPGKERELVAAISGSGGRTYYADSVKGRFTISRDNAKNTVYLQMNSLKPEYTAVYYCNTRGRSTDYDYWGQGTQVTVSS”, which “polyreactivity (PSR sort gate)” value is on record?
Answer: high polyreactivity

Question: For “QVQLVETVGGLVQAGGSLRLSCAASGIIFKRYPLGGYRQAPGKERELVAAITNRGGTYYADSVKGRFTISRDNEKNSVYLQMYSLKPEDTAVYYFAARYYWIDFKFGGPRDYWGQGTQVTVSS”, which “polyreactivity (PSR sort gate)” value is on record?
Answer: high polyreactivity

Question: Which “polyreactivity (PSR sort gate)” value does the source give for “QVPLVESGGGLVQAGGSLRLSCAASGRIFSSYAMGWYRQAPGKERELVAAISSRGGSTYYADSVKGRFTISRDNAKNTVYLQMNSLKPEDTAVYYCARVKYSGVVYKYDYWGQGTQVTVSS” here?
Answer: high polyreactivity

Question: With “QVQLVESGGGLVQAGGSLRLSCAASGSTFQGYDMGWYRQAPGKERELVAAINYSGGSTYYADSVKGRFTISRDNAKNTVYLQLNSLKPEDTAVFYCNADGYSQFWYEYYYCGQGTQVTVSS” as the sequence, how does the “polyreactivity (PSR sort gate)” value read?
Answer: high polyreactivity

Question: With “QVQLVESGGGLVQAGGSLRLSCAASGFTFAFYAMGWYSPAPGKVRELVAAISWDGVTTYYADSVKGRFTISRDNAKNTVYLQMNSLKPEDTAVYYCAADYPDYAASFWPSGMYYWGQGTQVTVSS” as the sequence, how does the “polyreactivity (PSR sort gate)” value read?
Answer: low polyreactivity

Question: For “QVQLVESGGGLVQAGGSLRFSCAASGFTIVGNTMGWYRQAPGKERELVASINTNGGSTYYADSVKGRFTISRDNAKNTVYLQMNSLKPEDTAVYYCAKDREDTYFEYEYDYWGQGTQVTVSS”, which “polyreactivity (PSR sort gate)” value is on record?
Answer: low polyreactivity

Question: Which “polyreactivity (PSR sort gate)” value does the source give for “QVQLVESGGGLVQAGGSLRLSCAASGSTFYTNAMGWYRQAPGKERELVAAISNAGSTYYADSVKGRFTISRDNAKNTVYLQMNSLKPEDTAVYYCAADPIGLSSLWFRYSVSDVDYWGQGTQVTVSS” here?
Answer: low polyreactivity

Question: With “QVQLVESGGGLVQPGGSLRLSCAASGRSFFGYPMGWYRQAPGKERELVATISGSGASTYYADSVKGRFTISRDNAKNTVYLQMNSLKPEDTAVYYFAARYVTNRHSRYYYWGQGTQVTVSS” as the sequence, how does the “polyreactivity (PSR sort gate)” value read?
Answer: high polyreactivity

Question: For “QVQLEESGGGLVQAGGSHRLSCAASGRTFGAYAMGWYLQAPGKEREVVAAITYRGASTYYADSVKGRFTISRDNAMYTVYLQMNSLITEDTAVYSCAAEGSIKYFVGYNWGYNYWGQGSQVTVSS”, which “polyreactivity (PSR sort gate)” value is on record?
Answer: low polyreactivity

Question: With “QVQHVESGGGLVQAGGSLRLSCAASGRTFFYNTMGWYRQAPGKERELVARITRGGSTYYADSVKGRFTISRDNAKNTVYLQMNSLKPEDTAVYYCAAGYWRGYLLYGFDYWGQGTQVTVSS” as the sequence, how does the “polyreactivity (PSR sort gate)” value read?
Answer: high polyreactivity

Question: For “QVQLVESGGGLVQAGGSLRLSCAASGFIFTAYAMGWYRQAPGKERELVAGIRSGSATYYADSVKGRFTISRDNAKNTVYLQMNILKPEDTAVYYCNAEKYNFIYAYEYWGQGTQVTVSS”, which “polyreactivity (PSR sort gate)” value is on record?
Answer: low polyreactivity

Question: With “QVQLVESGGGLVQAGGSLRLSCAASGSILYTNAMGWYRQAPGKERELVAAITTSGASTYYADSVKGRFTISRDNAKNTVYLQMNSLKPEDTAVYYCAATDYFPYDTYYAHDYWGQGTQVTVSS” as the sequence, how does the “polyreactivity (PSR sort gate)” value read?
Answer: high polyreactivity

Question: Which “polyreactivity (PSR sort gate)” value does the source give for “QVQHVESAGGLVQAGGSLRLSCAASARTFRYYAMGWYRQSPGKERELVAAINYSGGRTYYADSVKGRFTISRDNAKITVYLQMNSLNPEDTAVYYCNAVLGSYLPKFDYWGQGTQVTVSS” here?
Answer: high polyreactivity

Question: With “QVQLVESGGGLVQAGGSLRLSCAASGITLSYNDRGWYRQAHGKEREFVAAITGGGSTYYADSVKGRFTISRDNAKNTVYLQMNSLKPEDTEVYYCAAERWYAWTVLYTVSYGYWGQGTQVTVSS” as the sequence, how does the “polyreactivity (PSR sort gate)” value read?
Answer: high polyreactivity

Question: Which “polyreactivity (PSR sort gate)” value does the source give for “QVQLVESGGGLVQAGGSLRLSCAASGRIFHKYDMGWYRQAPGKERELVAAITTSGGSTYYADSVKGRFTISRDNAKNTVYLQMNSLKPEDTAVYYCADSWSRRERGFDYWGQGTQVTVSS” here?
Answer: high polyreactivity

Question: For “QVQLVESGGGLVQAGGSLRLSCAASGSTLWFNAMGWYRQAPGKERELVAAINWSGGSTYYADSVKGRFTISRDNAKNTVYLQMNSLKPEDTAVYYCAAVYQYVHYVWYDYWGQGTQVTVSS”, which “polyreactivity (PSR sort gate)” value is on record?
Answer: low polyreactivity

Question: For “QVQLVESGGGLVQAGGSLRLSCAASGRIFQYYDMGWYRQAPGKERELVATITSGGSTNYADSVKGRFTISRDNAKNTVYLQMNSLKPEDTAVYYCAALAYTASDYQPYDATEYNYWGQGTQVTVSS”, which “polyreactivity (PSR sort gate)” value is on record?
Answer: low polyreactivity

Question: For “QVQHVESGGGLVQAGGSLRLSSAASGRTFFRSAMGWYRQAPGKERELVAAISSRGGSTYYADSVKGRFTISRDNAKNTVYLHMNSLKPEDTAVYYCNAAAFINFILYDYWGQGTQVTVSA”, which “polyreactivity (PSR sort gate)” value is on record?
Answer: high polyreactivity

Question: With “QVQLVESGGGLVQAGGSLRLSCAASGSTFGSYTMGWYRQAPGKEREFVAAIRWIGGSTYYADSVKGRFTISRDNAKNTVYLQMNSLKPEDTAVYYCNAKRRKHGYYYWGQGTQVTVSS” as the sequence, how does the “polyreactivity (PSR sort gate)” value read?
Answer: high polyreactivity

Question: With “QVQLVESGGGLVQAGGSLRLSCAASGFILRNNAMGWSRQAPGKEREFVAAISSGTRTNYADSVKGRFTISSDNAKNTVYLQMNSLKPEDTAVYYCDAYPTRYYVGYDYWGQGTQVTVSS” as the sequence, how does the “polyreactivity (PSR sort gate)” value read?
Answer: high polyreactivity

Question: With “QVQLVESGGGLVQAGGSLRLSCAASGRTFSTNAMGWYRQAPGKERELVAAITSRGGSTYYADSVKGRFTISRDNAKNTVYLQMNSLKPEDPAVYYCAVDPLYYKTHYGTLGYYYLGQGTQVTVSS” as the sequence, how does the “polyreactivity (PSR sort gate)” value read?
Answer: low polyreactivity

Question: With “QVQLVESGGGLVQPGGSLRLSCAASGSIFAWYVMGWYRQAPGKERELVAGIDTSGGTTFYADSVKGRFTISRDNAKNTVYVQMNSLKPEDTAVYYCAADTWYRGPWEFDYWGQGTQVTVSS” as the sequence, how does the “polyreactivity (PSR sort gate)” value read?
Answer: low polyreactivity
